Results taken from US20230212587A1, “Mutant Hydroxyphenylpyruvate Dioxygenase Polypeptide, Encoding Gene Thereof and Use Therefor” (Beijing Dabeinong Biotechnology Co., Ltd., priority 2019, published 2023).

B1: TaHPPD4-02: native HPPD of Triticum aestivum ecotype 4, UniProt A0A3B6NLC6, SEQ ID NO: 195 (protein, listed as Triticum aestivum)
chain: MPPTPTTPAATGAAAVTPEHARPRRMVRFNPRSDRFHTLAFHHVEFWCADAASAAGRFAFALGAPLAARSDLSTGNSVHASQLLRSGNLAFLFTAPYANGCDAATASLPSFSADAARQFSADHGLAVRSIALRVADAAEAFRASVDGGARPAFSPVDLGRGFGFAEVELYGDVVLRFVSHPDGRDVPFLPGFEGVSNPDAVDYGLTRFDHVVGNVPELAPAAAYVAGFTGFHEFAEFTTEDVGTAESGLNSMVLANNSEGVLLPLNEPVHGTKRRSQIQTFLEHHGGSGVQHIAVASSDVLRTLREMRARSAMGGFDFLPPPLPKYYEGVRRIAGDVLSEAQIKECQELGVLVDRDDQGVLLQIFTKPVGDRPTLFLEMIQRIGCMEKDERGEEYQKGGCGGFGKGNFSELFKSIEDYEKSLEAKQSAAVQGS
modifications: TaHPPD4 Amino Acid Sequence
B2: TaHPPD4m-F372A-02: Triticum aestivum ecotype 4 HPPD mutant F372A, SEQ ID NO: 198 (protein)
chain: MPPTPTTPAATGAAAVTPEHARPRRMVRFNPRSDRFHTLAFHHVEFWCADAASAAGRFAFALGAPLAARSDLSTGNSVHASQLLRSGNLAFLFTAPYANGCDAATASLPSFSADAARQFSADHGLAVRSIALRVADAAEAFRASVDGGARPAFSPVDLGRGFGFAEVELYGDVVLRFVSHPDGRDVPFLPGFEGVSNPDAVDYGLTRFDHVVGNVPELAPAAAYVAGFTGFHEFAEFTTEDVGTAESGLNSMVLANNSEGVLLPLNEPVHGTKRRSQIQTFLEHHGGSGVQHIAVASSDVLRTLREMRARSAMGGFDFLPPPLPKYYEGVRRIAGDVLSEAQIKECQELGVLVDRDDQGVLLQIATKPVGDRPTLFLEMIQRIGCMEKDERGEEYQKGGCGGFGKGNFSELFKSIEDYEKSLEAKQSAAVQGS
modifications: TaHPPD4m-F372A Amino Acid Sequence
B3: TaHPPD3m-F372A-02: Triticum aestivum ecotype 3 HPPD mutant F372A, SEQ ID NO: 192 (protein)
chain: MPPTPTTPAATGAAAAAAVTPEHARPRRMVRFNPRSDRFHTLAFHHVEFWCADAASAAGRFAFALGAPLAARSDLSTGNSVHASQLLRSGNLAFLFTAPYANGCDAATASLPSFSADAARRFSADHGLAVRSIALRVADAAEAFRASVDGGARPAFSPVDLGRGFGFAEVELYGDVVLRFVSHPDDTDVPFLPGFEGVSNPDAVDYGLTRFDHVVGNVPELAPAAAYVAGFAGFHEFAEFTTEDVGTAESGLNSMVLANNSEGVLLPLNEPVHGTKRRSQIQTFLEHHGGPGVQHIAVASSDVLRTLREMRARSAMGGFDFLPPPLPKYYEGVRRIAGDVLSEAQIKECQELGVLVDRDDQGVLLQIATKPVGDRPTLFLEMIQRIGCMEKDERGEEYQKGGCGGFGKGNFSELFKSIEDYEKSLEAKQSAAVQAS
modifications: TaHPPD3m-F372A Amino Acid Sequence
B4: TaHPPD6-02: native HPPD of Triticum aestivum ecotype 6, UniProt A0A3B5YPS5, SEQ ID NO: 207 (protein, listed as Triticum aestivum)
chain: MVRFNPGSDRFHTLAFHHIEFWCTDAASADGRFAFSLGAPLAARSDLSTGNSTHASQLLRPGSLAFLFTAPYANGCIFSVDAARRFFADHGLAVRSVALRVADAAKAFRASVDGGARPAFAPVDLGRGFGFAEVKLYGDVVLRFVSHPDGTDVPFLPGLFEGVSNPGAVHYGLTRFDHIVGNVPELAPAAAYVAGLTGFHEFAEFTTEDVGTAQSGLNSVVLANTSEGVPLLLNEPVHGTKRRRQIQTFLEHHGGPGVQHIAVASSEVFRTLREMHARSSMGGFDFLPPPLPKYYEGVRRLAGDVLSEAQIKECQELGVLVNRDDQGVLLQIFTKPVGDRPTFFLEMIQRIGCMEKDERGEEYQKGGCGGFGKGNISELFKSIEDYEKSLEAKQSAAVQGSYI
modifications: TaHPPD6 Amino Acid Sequence
B5: TaHPPD5-02: native HPPD of Triticum aestivum ecotype 5, UniProt A0A3B6NNK0, SEQ ID NO: 201 (protein, listed as Triticum aestivum)
chain: MPPTPTTPAATGAAAVTPEHARPRRMVRFNPRSDRFHTLAFHHVEFWCADAASAAGRFAFALGAPLAARSDLSTGNSVHASQLLRSGNLAFLFTAPYANGCDAATASLPSFSADAARQFSADHGLAVRSIALRVADAAEAFRASVDGGARPAFSPVDLGRGFGFAEVELYGDVVLRFVSHPDGRDVPFLPGFEGVSNPDAVDYGLTRFDHVVGNVPELAPAAAYVAGFTGFHEFAEFTTEDVGTAESGLNSMVLANNSEGVLLPLNEPVHGTKRRSQIQTFLEHHGGSGVQHIAVASSDVLRTLREMRARSAMGGFDFLPPPLPKYYEGVRRIAGDVLSEAQIKECQELGVLVDRDDQGVLLQIFTKPVGDRPTLFLEMIQRIGCMEKDELFKSIEDYEKSLEAKQSAAVQGS
modifications: TaHPPD5 Amino Acid Sequence
B6: TaHPPD5m-F372A-02: Triticum aestivum ecotype 5 HPPD mutant F372A, SEQ ID NO: 204 (protein)
chain: MPPTPTTPAATGAAAVTPEHARPRRMVRFNPRSDRFHTLAFHHVEFWCADAASAAGRFAFALGAPLAARSDLSTGNSVHASQLLRSGNLAFLFTAPYANGCDAATASLPSFSADAARQFSADHGLAVRSIALRVADAAEAFRASVDGGARPAFSPVDLGRGFGFAEVELYGDVVLRFVSHPDGRDVPFLPGFEGVSNPDAVDYGLTRFDHVVGNVPELAPAAAYVAGFTGFHEFAEFTTEDVGTAESGLNSMVLANNSEGVLLPLNEPVHGTKRRSQIQTFLEHHGGSGVQHIAVASSDVLRTLREMRARSAMGGFDFLPPPLPKYYEGVRRIAGDVLSEAQIKECQELGVLVDRDDQGVLLQIATKPVGDRPTLFLEMIQRIGCMEKDELFKSIEDYEKSLEAKQSAAVQGS
modifications: TaHPPD5m-F372A Amino Acid Sequence

System: Arabidopsis thaliana T1 plants
Assay: Topramezone tolerance of transgenic Arabidopsis thaliana T1 plants (pesticide damage grade by bleached leaf area, score, resistance evaluation)
Type: in vivo
Conditions: HPPDs from ecotypes of Triticum aestivum; for Classification and statistics of pesticide damage grade: Grade 0 / Classification and statistics of pesticide damage grade: Grade 1 / Classification and statistics of pesticide damage grade: Grade 2 / Classification and statistics of pesticide damage grade: Grade 3: number of plants
How it was run: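 Eighteen days after sowing, wild-type and HPPD-transgenic T1 Arabidopsis receive a topramezone spray at 1×, 2× or 4× field rate (25–100 g ai/ha) or water. Seven days later each plant is graded by its proportion of bleached leaf area.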

Molecule	Resistance evaluation (topramezone 25 g ai/ha (1x))	Scores (topramezone 25 g ai/ha (1x))	Classification and statistics of pesticide damage grade: Grade 0 (topramezone 25 g ai/ha (1x))	Classification and statistics of pesticide damage grade: Grade 1 (topramezone 25 g ai/ha (1x))	Classification and statistics of pesticide damage grade: Grade 2 (topramezone 25 g ai/ha (1x))	Classification and statistics of pesticide damage grade: Grade 3 (topramezone 25 g ai/ha (1x))	Resistance evaluation (topramezone 100 g ai/ha (4x))	Scores (topramezone 100 g ai/ha (4x))	Classification and statistics of pesticide damage grade: Grade 0 (topramezone 100 g ai/ha (4x))	Classification and statistics of pesticide damage grade: Grade 1 (topramezone 100 g ai/ha (4x))	Classification and statistics of pesticide damage grade: Grade 2 (topramezone 100 g ai/ha (4x))	Classification and statistics of pesticide damage grade: Grade 3 (topramezone 100 g ai/ha (4x))
B1	non-resistant (non-resistant plants (scores 68-100))	92	0	0	4	12	non-resistant (non-resistant plants (scores 68-100))	100	0	0	0	16
B2	highly resistant (highly resistant plants (scores 0-15))	0	16	0	0	0	highly resistant (highly resistant plants (scores 0-15))	10	11	5	0	0
B3	highly resistant (highly resistant plants (scores 0-15))	0	16	0	0	0	highly resistant (highly resistant plants (scores 0-15))	8	12	4	0	0
B4	non-resistant (non-resistant plants (scores 68-100))	88	0	0	6	10	non-resistant (non-resistant plants (scores 68-100))	96	0	0	2	14
B5	non-resistant (non-resistant plants (scores 68-100))	83	0	0	8	8	non-resistant (non-resistant plants (scores 68-100))	96	0	0	2	14
B6	highly resistant (highly resistant plants (scores 0-15))	0	16	0	0	0	moderately resistant (moderately resistant plants (scores 16-33))	23	6	9	1	0
